Assay results reported in the RNAGym collection of RNA variant scans (doi:10.7554/elife.80360).

B1: HDV Ribozyme (parent)
chain: GGCCGGCAUGGUCCCAGCCUCCUCGCUGGCGCCGGCUGGGCAACAUUCCGAGGGGACCGUCCCCUCGGUAAUGGCGAAUGGGACCCA

Variants of: B1
Experiment: self-cleavage, relative activity (ratio to wild type); higher = more cleavage; co-transcriptional

| Variant | self-cleavage |
| --- | --- |
| GGCCGGCAUGGUCCCAGCCUCCUCGCUGGCGCCGGCUGGGCAACAUUCCGCGGGGACCGUCCCCUCGAUAAUGGCGAAUGGGACCCA | 0.916 |
| GGCCGGCAUGGUCCCAGCCUCCUCGCUGGCGCCGGCUGGGCAACAUUCCGAGAGGACCGUCCCCUCGGUAAUGGCGAAUGGCACCCA | 0.246 |
| GGCCGGCAUGGUCCCAGCCUCCUCGCUGGCGCCUGCUGGGCAACAUUCCGAGGGGACCGUCCCCUCGGUAAUGGCGAAGGGGACCCA | 0.0978 |
| GGCCGGUAUGGUCCCAGCCUCCUCGCUGGCGGCGGCUGGGCAACAUUCCGAGGGGACCGUCCCCUCGGUAAUGGCGAAUGGGACCCA | 0.0361 |
| GGCCGGCAUGGUCCCAGCCUCCUCGCUGGCGCCGGCUGGGCAACAUUCCGAGGGUUCCGUCCCCUCGGUAAUGGCGAAUGGGACCCA | 0.797 |
| GGCCGGCAUGGUCCCAGCCUCCUCGCUGGCGCCGGCUGGGCAACAUUCGGAGGGGACCGUCCCCUCGGUAAUGGCGAAUGGGACCCG | 0.969 |
| GGCCGGCAUGGGCCCAGCCUCCUCGCUGGCGCCGGCUGGGCAACAUUCCGAGGGGACCGUCCCCUCGGUAAUGGCGAAUAGGACCCA | 0.906 |
| GGCCGGCAUGGUCCCAGCCUCCUCGCUGGCGCCGGCUGGGCAACAUUCCGAGUGGACCGUCCCCUCGGUAAUGGCGAAUGAGACCCA | 0.445 |
| UGCCGACAUGGUCCCAGCCUCCUCGCUGGCGCCGGCUGGGCAACAUUCCGAGGGGACCGUCCCCUCGGUAAUGGCGAAUGGGACCCA | 0.41 |
| GGCCGGCAUGGUCCCAGCCUCCUCGCUGGCGCCGGCUGGGCUACAUUCCGAGGGGACCGUCCCCUCGGUAAUGCCGAAUGGGACCCA | 0.17 |
| GGCCGGCUUGGUCCCAGCCUCCUCGCUGGCGCCGGCUGGGCAACAUUCCGAGGGGACCGUCCCCUCGGUAAUGGCGAAUGGGACCCC | 0.845 |
| GGCCGGGAUGGUCCCAGCCUCCUCGCUGGCGCCGGCUGGGCAACAUACCGAGGGGACCGUCCCCUCGGUAAUGGCGAAUGGGACCCA | 0 |
| GGCCGGCAUGGUCCCAGCCUUCUCGCUGGCGCCGGCUGGGCAACAUUCCGAGGGGACCGUCCCCUCGGUAAUGGCGAAUGGGACCGA | 0.253 |
| GGCGGGCAUGGUCCCAGCCUCCUCGCUGGCGCCGGCUGAGCAACAUUCCGAGGGGACCGUCCCCUCGGUAAUGGCGAAUGGGACCCA | 0.0183 |
| GGGCGGCAUGGUCCCAGCCUCCUCGCUGGCGCCGGGUGGGCAACAUUCCGAGGGGACCGUCCCCUCGGUAAUGGCGAAUGGGACCCA | 0.0343 |
| GGCCUGCAUGGUCCCAGCCUCCCCGCUGGCGCCGGCUGGGCAACAUUCCGAGGGGACCGUCCCCUCGGUAAUGGCGAAUGGGACCCA | 0.462 |
| GGCCGGCAUGGUCCCAGGCUCCUCGCUGGCGCCGGCUGGGCAACAUUCCGAGGGGACCGUCCCCUGGGUAAUGGCGAAUGGGACCCA | 0.0665 |
| GGCAGGCAUGGUCCCAGCCUCCUCGCUGGCGCCGGCUGGGCAACAUUCCGAGGGGACCGUCCCCUCGGUAAUGGCGAAUGGGACUCA | 0.381 |
| GGCCGGCAUGGUCCCAGCCUCCUCGCUGGCGCCGGCUGGGCAACAUUCCGAGCGGACCCUCCCCUCGGUAAUGGCGAAUGGGACCCA | 0.958 |
| GGCCGGCAUGGUCCCAGCCUCCUCGCCGGCGCCGGCUGGGCAACUUUCCGAGGGGACCGUCCCCUCGGUAAUGGCGAAUGGGACCCA | 0.532 |
| GGCCAGCAUGGUCCCAGCCUCCUCACUGGCGCCGGCUGGGCAACAUUCCGAGGGGACCGUCCCCUCGGUAAUGGCGAAUGGGACCCA | 0 |
| GGCCGGCAUGGUCCCAGCCUCCUCGCUGGCGCCGGCUGGGCAACAUUCCGAGGGGACCGUCCCCUCGGUACUGGCAAAUGGGACCCA | 0.935 |

| Variant | self-cleavage |
| --- | --- |
| GGCCGGCAUGGUCACAGCCUCCUCGCUGGCGCCGGCUGGGCAACGUUCCGAGGGGACCGUCCCCUCGGUAAUGGCGAAUGGGACCCA | 0.703 |
| GGCCGGCAUGGUCCCAGCCUCCUCGCUGGCGCCGGCUGGGCAGCAUUCCGAGGGGCCCGUCCCCUCGGUAAUGGCGAAUGGGACCCA | 0.587 |
| GGCCGGCAUGGUCCCAGCCUCCCCGCUGGCGCCGGCUGGGCGACAUUCCGAGGGGACCGUCCCCUCGGUAAUGGCGAAUGGGACCCA | 0.227 |
| GGCCGGCAUGGUCCCAGCCUCCUCGCUGGCGCCGGCUGGGCAACAAUCCGAGGGGACCGUCCCCUCGGUACUGGCGAAUGGGACCCA | 1.11 |
| GGCCGGCAUGGUCCCAGCCUCCUCGCUGGCGCCGGCUGGGCAACACUCCGAGGGGGCCGUCCCCUCGGUAAUGGCGAAUGGGACCCA | 0.643 |
| GGCCGGCAUGGUCCCAGUCUCCUCGCUGCCGCCGGCUGGGCAACAUUCCGAGGGGACCGUCCCCUCGGUAAUGGCGAAUGGGACCCA | 0.196 |
| GGCCGGCAUGGUCCCAGCCUCCUCGCUGGCGCCCGCUGGGCAACAUUCCGAGGGGACCGUCCCCUCGGUAGUGGCGAAUGGGACCCA | 0 |
| GGCCGGCAUGGUCCCUGCCUCCUCGCUGGCGCCGGCUGGGCAACAUUCCGAGGGGACCGUCCCCUCGGAAAUGGCGAAUGGGACCCA | 0.911 |
| GGCCGGCAUGGUCCCAGCCUCCUCGCUGGCGCCGGCUGAGCAACAUUCCGAGGGGACCGUCCACUCGGUAAUGGCGAAUGGGACCCA | 0.538 |
| GGCCGGCAUGGUCCCAGCCUCCUCGCUGGCGCCGGCUGGGCAACAUUCCGAGGGGACCGUCCCCUAGGUAACGGCGAAUGGGACCCA | 0.229 |
| GGCCGGCAUGGUCCCAGCCUCCUCGCUGCCGCCGGCUGGGCAACAUUCCGAGGGGACCGUCCCCUCGGUAAUGGCGAAUGGUACCCA | 0.0959 |
| GGCCGGCAUGGGCCCGGCCUCCUCGCUGGCGCCGGCUGGGCAACAUUCCGAGGGGACCGUCCCCUCGGUAAUGGCGAAUGGGACCCA | 1.06 |
| GGCCGGCAUGGUCCCAGCCUCCUCGCUGGCGCCGGCUGGGCAACAUUCCGAGGGCACCGUCCCCUCGCUAAUGGCGAAUGGGACCCA | 0.752 |
| GGCCGGCAUGGUCCCAGCCUCCUCGCUGGCGCCGGCUGGGCAACAUUCCGAGGGGACCGUCCCCUCGGUAAUGGCGAAUGGCACCCU | 0.247 |
| GGCCGGCAUGGUGCCAGCCUCCUGGCUGGCGCCGGCUGGGCAACAUUCCGAGGGGACCGUCCCCUCGGUAAUGGCGAAUGGGACCCA | 0 |
| GGCCGGCAUGGUCCCAGCAUCCUCGCUGGCGCCGGCUGGGCAACAUUCCGAGGGGACCGUCCCCUCGGUAAUGACGAAUGGGACCCA | 0.0755 |
| GGCCGGCAUGGUCCCAGCCUCCACGCUGGCGCAGGCUGGGCAACAUUCCGAGGGGACCGUCCCCUCGGUAAUGGCGAAUGGGACCCA | 0.237 |
| GGCCGGCAUGGUCUCAGCCUCCUCGCUGGCGCCGGCUGGGCAACAUUCCGAGGGGACCGUGCCCUCGGUAAUGGCGAAUGGGACCCA | 1.08 |
| GGCCGGCAUGGUCCCAGCCUCCUCCCUGGCGCCGGCUGGGCAACGUUCCGAGGGGACCGUCCCCUCGGUAAUGGCGAAUGGGACCCA | 0.104 |
| GGCCGGCAUGGUCCCAGCCUCCUCGCUGGCGCCGGCUGGGCAACCUUCCGAGGGGACCGUCCCCUCCGUAAUGGCGAAUGGGACCCA | 0.731 |
| GGCCGGCAUGGUCCCAGCCUCCUCGCUGGCGCCGGCUGGGCAACAUUCCGAGGGGACCGUCCCCUCGGUAAUGGCGGAUGGUACCCA | 0.277 |
| GGCCGGCAUGGUCCCAGCCUCCUCGCUGGCGCCGGCUGGGCAACAUUCCGAGGGGACCGUCCCCUCGGUAUUGGCGAAUGGGACCUA | 1.02 |

| Variant | self-cleavage |
| --- | --- |
| GGCCGGCAUGGUCCCAGCCUCCUCGAUGGCGCCGCCUGGGCAACAUUCCGAGGGGACCGUCCCCUCGGUAAUGGCGAAUGGGACCCA | 0.429 |
| GGCCGGCAUGGUCCCAGCCUCCUCGCUGGCGCCGGCUGGGCCACAUUCCGAGGGGACUGUCCCCUCGGUAAUGGCGAAUGGGACCCA | 0.322 |
| GGCCGGCAUGGUCCCAGCCUCCUCGCUGGCGCCGGCUGGGCAACAGUGCGAGGGGACCGUCCCCUCGGUAAUGGCGAAUGGGACCCA | 0.475 |
| GGCCGGCAUGGUCCCAGCCUCCUCGCUGGCGCCGGCUGGGCAACAUUCCUAGGGGACCGUCCCGUCGGUAAUGGCGAAUGGGACCCA | 0.703 |
| GGCCGGCAUGGUCCCAGCCUCCUCGCUGGCGGCGUCUGGGCAACAUUCCGAGGGGACCGUCCCCUCGGUAAUGGCGAAUGGGACCCA | 0.0583 |
| GGCCGGCAUGGUCCCAGACUCCUCGCUGGCGCCGGCUGGGCAACAUUCCGAGGGGACCGUCCCCUCGGCAAUGGCGAAUGGGACCCA | 0.138 |
| GGCCGGCAUGGUCCCAGCCUCCUCGCUGGCGCCGGCUGGGCAACAUUCCGAGGGGCCCGUCCCCGCGGUAAUGGCGAAUGGGACCCA | 0.985 |
| GGCCGGCAUGGUCCCAGGCUCCUCGCUGGCGCCGCCUGGGCAACAUUCCGAGGGGACCGUCCCCUCGGUAAUGGCGAAUGGGACCCA | 0.104 |
| GGCCGGCAUGGUCCCAGCCUCCUCGCUGACGCCGGCUGGGCAACAUUCCGAGGGGACCGUCCCCUCGGUAAUGGGGAAUGGGACCCA | 0.0346 |
| GGCCGGCAUGGUCCCAGCCUGCUCGCUGGCGCCGGGUGGGCAACAUUCCGAGGGGACCGUCCCCUCGGUAAUGGCGAAUGGGACCCA | 0 |
| GGCCGGCUUGGUCCCAGCCUCCUCGCUGGCGCCAGCUGGGCAACAUUCCGAGGGGACCGUCCCCUCGGUAAUGGCGAAUGGGACCCA | 0.242 |
| GGCCGGCAUGGUCCCAGCCUCCUCGCUGGCGCCGGCUAGGCAACAUUCCGAGGGGACAGUCCCCUCGGUAAUGGCGAAUGGGACCCA | 0.115 |
| GGCCGGCAUGGUCCCAGCCUCCUCGCUGGCUCCGGCUGGGCAACAUUCCGAGGGGACCGUCCCCUCGGUAAUGGCGAAUGUGACCCA | 0.23 |
| GGCCGGCAUGGUCCCAGCCUCCUCGCUGGCGCCGGCUGGGCAACAUCCCGAGGGGACCGUCCCCUCGGUAAUGGCGAAUGGGACCGA | 0.675 |
| GGCCGGCAUGGUCCAAGCCUCCUCGCUUGCGCCGGCUGGGCAACAUUCCGAGGGGACCGUCCCCUCGGUAAUGGCGAAUGGGACCCA | 0.0615 |
| GGCCGGCAUGGUCCCAGCCUCCUCGCUGGCGCCGGCUGGGCAACAUGCCGAGGGGACCGUCCCCCCGGUAAUGGCGAAUGGGACCCA | 0.923 |
| GGCCGGCAUGGUCCCAGCAUCCUCGCUGGCGCCGGCUGGGCAACAUUCCGAGGGGACCGUCCCCUCGGUAAUUGCGAAUGGGACCCA | 0.0631 |
| GGCCGGCAUGGUCCCAGCCUCCUCGCUGGCGACGGCUGGGCAACAUUCCGAGGGGACCGUCCCCUCGGUAAUGGAGAAUGGGACCCA | 0.0723 |
| GGCCGGCAUGGUCCCAGCCUCCUCGCUGGCGCCGGCUGGGCAACAUUCCGAGGGGACCGUACCCUCGGUAAUGGCGAAUGGGACCAA | 0.897 |
| GUCCGGCAUGGUCCCAGCCUCCUCGCUGGCGCCGGCUGGGCAACAUUCCGAGGGGACCGUCCCCUCGGUAAUGGCGAAUGGGACCGA | 0.117 |
